# From PMC7505474, “Toll-like receptor 4-mediated inflammation triggered by extracellular IFI16 is enhanced by lipopolysaccharide binding” (PLoS Pathogens, 2020)
# B1: IFI16: human recombinant IFI16 protein, endotoxin-free (protein)
# chain: MGKKYKNIVLLKGLEVINDYHFRMVKSLLSNDLKLNLKMREEYDKIQIADLMEEKFRGDAGLGKLIKIFEDIPTLEDLAETLKKEKLKVKGPALSRKRKKEVDATSPAPSTSSTVKTEGAEATPGAQKRKKSTKEKAGPKGSKVSEEQTQPPSPAGAGMSTAMGRSPSPKTSLSAPPNSSSTENPKTVAKCQVTPRRNVLQKRPVIVKVLSTTKPFEYETPEMEKKIMFHATVATQTQFFHVKVLNTSLKEKFNGKKIIIISDYLEYDSLLEVNEESTVSEAGPNQTFEVPNKIINRAKETLKIDILHKQASGNIVYGVFMLHKKTVNQKTTIYEIQDDRGKMDVVGTGQCHNIPCEEGDKLQLFCFRLRKKNQMSKLISEMHSFIQIKKKTNPRNNDPKSMKLPQEQRQLPYPSEASTTFPESHLRTPQMPPTTPSSSFFTKKSEDTISKMNDFMRMQILKEGSHFPGPFMTSIGPAESHPHTPQMPPSTPSSSFLTTLKPRLKTEPEEVSIEDSAQSDLKEVMVLNATESFVYEPKEQKKMFHATVATENEVFRVKVFNIDLKEKFTPKKIIAIANYVCRNGFLEVYPFTLVADVNADRNMEIPKGLIRSASVTPKINQLCSQTKGSFVNGVFEVHKKNVRGEFTYYEIQDNTGKMEVVVHGRLTTINCEEGDKLKLTCFELAPKSGNTGELRSVIHSHIKVIKTRKNKKDILNPDSSMETSPDFFF
# Experiments:
# [1] = In vitro pull-down assay with biotin-LPS-EB and streptavidin beads; format: binding, E. coli O111:B4; conditions: 3 μg recombinant protein; 10 μg biotin-LPS-EB
# Description: Biotin-labeled LPS-EB (10 μg) was incubated with 30 μl of streptavidin sepharose high performance beads (GE Healthcare) for 3 h at 4°C. After a washing step, 3 μg of recombinant IFI16, PYRIN, HINA, HINB, IFI16ΔHINB, or GST were added and incubated O/N at 4°C. After five washes with 1X PBS with 0.25% Triton X-100 (Sigma-Aldrich), samples were boiled in sample buffer containing SDS and β-mercaptoethanol and centrifuged. Supernatants were separated on a 7.5% or 12% SDS-polyacrylamide gel (Bio-Rad). Gels were stained with Coomassie brilliant blue (Serva Electrophoresis GmbH) for protein visualization.
# [2] = system: gram-negative bacteria (E. coli, Klebsiella pneumoniae); assay: Whole cell ELISA on formalin-fixed gram-negative bacteria; format: binding; conditions: formalin-fixed bacteria as solid phase
# Description: (§1) For whole-cell ELISA, different strains of bacteria (i.e., gram-positive: Staphylococcus aureus, Staphylococcus epidermidis and Streptococcus pyogenes; gram-negative: Escherichia coli and Klebsiella pneumonia) were grown in LB medium without antibiotics and, after washing with 1X PBS, fixed in 0.5% formalin O/N at 4°C. Subsequently, the bacteria were diluted to an OD600 of 0.5 and were used to coat microtiter plates O/N at 37°C. After blocking, increasing concentrations of IFI16 were added to the wells and incubated for 2 h at RT. Anti-IFI16 antibodies against the N-terminus of the protein and HRP-labelled anti-rabbit IgG were then added as primary and secondary antibody, respectively, and binding was detected as described above.
# [3] = system: gram-positive bacteria (Staphylococcus aureus, Staphylococcus epidermidis, Streptococcus pyogenes); assay: Whole cell ELISA on formalin-fixed gram-positive bacteria; format: binding; conditions: formalin-fixed bacteria as solid phase
# Description: as §1
# [4] = target: T1, TLR4 (Homo sapiens, UniProt O00206); assay: SPR, IFI16 over immobilized TLR4; format: binding; conditions: IFI16 31.25–1,000 nM over immobilized TLR4; read-out: equilibrium dissociation constant (KD)
# T1 construct: purchased R&D Systems 478-TR-050
# T1 sequence (O00206 24-631 limits assumed): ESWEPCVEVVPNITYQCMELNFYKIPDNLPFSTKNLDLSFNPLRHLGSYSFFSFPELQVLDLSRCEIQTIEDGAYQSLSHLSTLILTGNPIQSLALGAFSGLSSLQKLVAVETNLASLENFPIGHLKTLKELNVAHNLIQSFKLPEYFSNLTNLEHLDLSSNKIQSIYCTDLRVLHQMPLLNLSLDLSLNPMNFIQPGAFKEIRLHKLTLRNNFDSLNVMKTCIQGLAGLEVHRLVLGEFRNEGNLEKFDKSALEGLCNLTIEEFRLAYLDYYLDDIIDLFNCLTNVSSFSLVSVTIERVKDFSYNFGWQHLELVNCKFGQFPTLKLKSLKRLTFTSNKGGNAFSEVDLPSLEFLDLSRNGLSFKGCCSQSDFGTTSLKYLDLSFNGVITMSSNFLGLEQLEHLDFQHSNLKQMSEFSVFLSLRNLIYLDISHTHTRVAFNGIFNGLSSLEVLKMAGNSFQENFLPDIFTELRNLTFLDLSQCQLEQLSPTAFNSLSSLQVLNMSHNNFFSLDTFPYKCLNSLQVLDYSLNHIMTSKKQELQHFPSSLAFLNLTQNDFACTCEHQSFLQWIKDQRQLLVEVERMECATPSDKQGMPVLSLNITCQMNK
# Description: The Biacore X100 (GE Healthcare) instrument was used for real-time binding interaction experiments. Recombinant TLR4 or TLR4/MD2 complex was covalently immobilized onto the surface of sensor CM5 (cat # BR100012, GE Healthcare) chips via amine coupling. TLR4 was diluted to a concentration of 10 μg/ml in 10 mM sodium acetate at pH 4.0, while TLR4/MD2 complex was diluted to a concentration of 20 μg/ml in the same buffer. Both proteins were injected on CM5 chips at a flow rate of 10 μl/min, upon activation of the carboxyl groups on the sensor surface with 7-min injection of a mixture of 0.2 M EDC and 0.05 M NHS. The remaining esters were blocked with 7-min injection of ethanolamine. Taking into account the ligands (TLR4 or TLR4/MD2) and analytes (IFI16, LPS-EB or IFI16/LPS-EB) molecular weights (MW) of 70 or 90 kDa, and 90, 10 or 100 kDa respectively, the appropriate ligand density (RL) on the chip was calculated according to the following equation: RL = (ligand MW/analyte MW) × Rmax × (1/Sm), where Rmax is the maximum binding signal and Sm corresponds to the binding stoichiometry. The target capture level of the TLR4 or TLR4/MD2 was of 596.0 or 1,223.9 response units (RUs), respectively. […]
# [5] = system: 786-O cells; assay: qRT-PCR of proinflammatory cytokine mRNA in 786-O cells; format: cell-based, human; conditions: 24 h, IFI16 25 μg/ml, over mock-treated cells
# Description: (§2) For treatments, cells were stimulated in complete medium with endotoxin-free IFI16 (25 μg/ml), endotoxin-free IFI16ΔHINB (25 μg/ml), MPLA, DPLA, LPS-F583, LPS-EB, LPS-RS, alone or pre-complexed by O/N incubation at 4°C, unless specified otherwise. Additionally, cells were stimulated with supernatants of untreated or UVB-treated U2OS or U2OS-IFI16^-/- cells alone or preincubated O/N at 4°C with LPS-EB, or LPS-RS. LPS variants or lipid A moieties were used at a concentration of 10 ng/ml. All treatments were carried out at 37°C and 5% CO2.
# (§3) Quantitative real-time PCR (qRT-PCR) was performed on a CFX96 Real-Time PCR Detection System (Bio-Rad) as previously described. Total RNA was extracted using TRI Reagent (Sigma-Aldrich), and 1 μg was retrotranscribed using an iScript cDNA Synthesis Kit (Bio-Rad). Reverse-transcribed cDNAs were amplified in duplicate using SsoAdvanced Universal SYBR Green Supermix (Bio-Rad). The glyceraldehyde 3-phosphate dehydrogenase (GAPDH) gene was used as housekeeping gene to normalize for variations in cDNA levels. The relative normalized expression after stimulation as compared to control was calculated as fold change = 2 ^-Δ(ΔCT) where ΔCT = CTtarget—CTGADPH and Δ(ΔCT) = ΔCTstimulated - ΔCTcontrol. The primer sequences are available upon request.
# [6] = system: THP-1 cells; assay: qRT-PCR of proinflammatory cytokine mRNA in THP-1 cells; format: cell-based, human; conditions: 24 h, IFI16 25 μg/ml, over mock-treated cells
# Description: as §2, §3
# [7] = system: 786-O cells; assay: Cytokine release by ELISA in 786-O culture supernatants; format: cell-based, human; conditions: 24 h post-treatment, 25 μg/ml, alone or complexed with LPS
# Description: as §2
# Cytokines secreted in culture supernatants after treatments were analyzed using human IL-6 DuoSet ELISA and human IL-8 DuoSet ELISA (all from R&D Systems), human TNF-α Uncoated ELISA and human IL-1β Uncoated ELISA (Thermo Fisher Scientific) according to the manufacturer’s instructions. Absorbance was measured using a Spark multimode microplate reader (Tecan).
# [8] = system: NF-κB; assay: ELISA-based transcription factor binding assay, 786-O nuclear extracts; format: cell-based, human; conditions: 2 h, IFI16 25 μg/ml, LPS-EB 10 ng/ml
# Description: (§4) Nuclear extracts were prepared using NE-PER Nuclear and Cytoplasmic Extraction Reagents (Thermo Fisher Scientific), according to the manufacturer’s instructions. NF-κB binding activity to a DNA probe containing its binding consensus sequence was measured by Universal Transcription Factor Assay Colorimetric kit (Merck Millipore). […] The following biotinylated oligonucleotides were used: sense (biotin): 5’-[…]-3’; antisense: 5’-[…]-3’.
# [9] = system: NF-κB; assay: ELISA-based transcription factor binding assay, THP-1 nuclear extracts; format: cell-based, human; conditions: 2 h, IFI16 25 μg/ml, LPS-EB 10 ng/ml
# Description: as §4
# [10] = target: T2, TLR4/MD2 receptor (Homo sapiens, UniProt O00206+Q9Y6Y9); assay: SPR, analytes over immobilized TLR4/MD2; format: binding; set-up: purchased R&D Systems 3146-TM-050/CF
# Description: The Biacore X100 (GE Healthcare) instrument was used for real-time binding interaction experiments. Recombinant TLR4 or TLR4/MD2 complex was covalently immobilized onto the surface of sensor CM5 (cat # BR100012, GE Healthcare) chips via amine coupling. TLR4 was diluted to a concentration of 10 μg/ml in 10 mM sodium acetate at pH 4.0, while TLR4/MD2 complex was diluted to a concentration of 20 μg/ml in the same buffer. Both proteins were injected on CM5 chips at a flow rate of 10 μl/min, upon activation of the carboxyl groups on the sensor surface with 7-min injection of a mixture of 0.2 M EDC and 0.05 M NHS. The remaining esters were blocked with 7-min injection of ethanolamine. Taking into account the ligands (TLR4 or TLR4/MD2) and analytes (IFI16, LPS-EB or IFI16/LPS-EB) molecular weights (MW) of 70 or 90 kDa, and 90, 10 or 100 kDa respectively, the appropriate ligand density (RL) on the chip was calculated according to the following equation: RL = (ligand MW/analyte MW) × Rmax × (1/Sm), where Rmax is the maximum binding signal and Sm corresponds to the binding stoichiometry. The target capture level of the TLR4 or TLR4/MD2 was of 596.0 or 1,223.9 response units (RUs), respectively. […] Increasing concentrations of endotoxin-free IFI16, LPS-EB or IFI16/LPS-EB complex were flowed over the CM5 sensor chip coated with TLR4 or TLR4/MD2 at a flow rate of 30 μl/min at 25°C with an association time of 120 s for IFI16 alone and the IFI16/LPS-EB complex, and 180 s for LPS-EB, and a dissociation phase of 180 s for IFI16 and IFI16/LPS-EB complex or 600 s for LPS-EB. A single regeneration step with 50 mM NaOH was performed following each analytic cycle. All the analytes tested were diluted in the HBS-EP+ buffer (GE Healthcare). […]
# Target sequence in this assay (O00206 24-631 limits assumed): as above
# Target sequence in this assay (Q9Y6Y9 17-160 limits assumed): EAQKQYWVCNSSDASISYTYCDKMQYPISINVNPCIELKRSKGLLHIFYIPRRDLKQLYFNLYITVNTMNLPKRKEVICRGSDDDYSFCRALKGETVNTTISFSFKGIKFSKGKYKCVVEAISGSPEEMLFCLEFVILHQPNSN
# [11] = target: T2, TLR4/MD2 receptor; assay: Co-immunoprecipitation with anti-TLR4 antibody from treated 786-O cells; format: cell-based; set-up: endogenous in cells; host or cells: 786-O; conditions: 786-O cells stimulated 1 h; extracts untreated or DNase I-treated
# Description: Co-immunoprecipitation of TLR4 with interacting proteins was performed using the Dynabeads Protein G Immunoprecipitation Kit (ThermoFisher), according to the manufacturer’s instructions with minor modifications. Briefly, after lysis of treated cells, 20 μg of total cell extracts were kept as the input control, while 90 μg of total cell extracts were incubated for 1 h at RT with 2.5 μg of anti-TLR4 antibody previously conjugated with magnetic beads. The resulting complexes were then washed, eluted, denatured, and subjected to Western blotting as described above. For DNase-treated cell extracts, DNase I (Sigma Aldrich) was added at a 1:10 dilution and incubated for 15 min at RT. Images were acquired, and densitometry of the bands was performed using Quantity One software (version 4.6.9, Bio-Rad). Densitometry values were normalized using the corresponding loading controls.
# Target sequence in this assay (O00206 24-839): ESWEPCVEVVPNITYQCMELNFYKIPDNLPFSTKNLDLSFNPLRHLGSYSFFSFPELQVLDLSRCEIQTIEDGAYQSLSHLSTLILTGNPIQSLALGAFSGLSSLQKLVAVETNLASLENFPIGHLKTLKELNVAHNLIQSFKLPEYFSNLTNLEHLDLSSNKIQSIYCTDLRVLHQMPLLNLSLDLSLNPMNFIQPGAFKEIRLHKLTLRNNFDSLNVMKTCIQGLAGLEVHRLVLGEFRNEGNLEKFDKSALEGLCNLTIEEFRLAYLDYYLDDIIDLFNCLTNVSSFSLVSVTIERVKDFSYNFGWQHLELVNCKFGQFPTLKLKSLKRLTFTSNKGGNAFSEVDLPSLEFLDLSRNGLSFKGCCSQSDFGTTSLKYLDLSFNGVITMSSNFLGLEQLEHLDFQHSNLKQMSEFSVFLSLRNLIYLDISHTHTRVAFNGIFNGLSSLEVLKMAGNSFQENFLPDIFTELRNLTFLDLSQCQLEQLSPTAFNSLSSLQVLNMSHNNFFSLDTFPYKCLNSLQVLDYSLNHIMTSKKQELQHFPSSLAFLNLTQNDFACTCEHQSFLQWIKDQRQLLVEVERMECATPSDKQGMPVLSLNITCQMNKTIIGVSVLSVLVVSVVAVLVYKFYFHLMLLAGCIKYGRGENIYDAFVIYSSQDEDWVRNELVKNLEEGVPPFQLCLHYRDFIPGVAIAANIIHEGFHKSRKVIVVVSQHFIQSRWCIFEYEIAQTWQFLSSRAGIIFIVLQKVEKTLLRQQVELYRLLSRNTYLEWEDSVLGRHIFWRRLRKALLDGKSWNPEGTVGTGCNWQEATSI
# Target sequence in this assay (Q9Y6Y9 17-160 limits assumed): as the sequence (Q9Y6Y9 17-160 limits assumed) above
molecule,measurement,setting,value
B1,Pull-down by biotin-LPS-EB (Coomassie band),[1],readily detect a highly reproducible ~100-kDa band
same,IFI16 binding to surface of gram-negative bacteria,[2],strongly associated with the surface of both gram-negative bacteria species
same,IFI16 binding to gram-positive bacteria,[3],no IFI16 binding could be detected
same,Kd,[4],130 nM
same,IL-1β gene expression fold induction,[5],13 fold
same,IL-1β gene expression fold induction,[6],72 fold
same,IL-1β release,[7],neither IFI16 nor IFI16ΔHINB per se or after forming a complex with LPS induced IL-1β release
same,NF-κB binding activity fold induction vs untreated cells,[8],2.2 fold
same,NF-κB binding activity fold induction vs untreated cells,[9],2.4 fold
same,dissociation rate constant (Kd),[10],0.00614 s⁻¹
same,Ka,[10]; association rate constant,9070 M⁻¹ s⁻¹
same,dissociation rate constant (koff),[10]; dissociation rate constant,0.00614 s⁻¹
same,Rmax,[10]; maximum response,26.09 RU
same,Kd,"[10]; text / Fig 8C legend, read-out: equilibrium dissociation constant (KD)",680 nM
same,Co-immunoprecipitation with TLR4/MD2,[11],co-immunoprecipitated with TLR4/MD2 receptor
